Target: the molecule itself
Experiment: not stated; data not shown; oligomeric state of recombinant VP70 expressed in insect cells or E. coli

B1: astrovirus VP70 expressed in insect cells (natural protein)
chain: MASKSDKQVTVEVNNNGRSRSKSRARSQSRGRGRSVKITVNSHNKGRRQNGRNKYQSNQRVRKIVNKQLRKQGVTGPKPAICQTATATLGTIGSNTTGATEIEACILLNPVLVKDATGSTQFGPVQALGAQYSMWKLKYLNVRLTSMVGASAVNGTVVRISLNPTSTPSSTSWSGLGARKHLDVTVGKNAVFKLKPSDLGGPRDGWWLTNTNDNASDTLGPSIEIHTLGQTMSSYQNTQFTGGLFLVELSSAWCFTGYAANPNLVNLVKSTDKSVNVTFEGSAGTPLIMNVPEHSHFARTAVEHSSLSTSLSRAGGESSSDTVWQVLNTAVSAAELVTPPPFNWLVKGGWWFVKLIAGRARTGARRFYVYLSYQDALSNKPALCTGGVPASARQSNPVRTTLQFTQMNQPSLGHGATPMTFGRSIPEPGEQFRVLLTVGPPMAPNTANSQNWVNKTIVPPENQYTVKIGIDLEHYTTMQGFTPVESVSWYTADFQPSDEPSPIPGLYARVNNTKKADVYGVQQFKSSHTNNRHQITSVFLVRVTTSFQVINYTSYFIRGAESGSNVSNLKIRDQTYHTPLQFTQGKWYLLTSTVMHDGPTSSGWVWMNQELTNNIAYRVDPGMMYLITPPPAASQLYFELHTVLPQARSEEPETYVD
notes: construct, tags and purification are not described; source: insect cells
stoichiometry N: 2

B2: astrovirus VP70 expressed in E. coli (natural protein)
chain: B1 chain
notes: construct, tags and purification are not described; source: E. coli
stoichiometry N: 2

From publication PMC5044835, “Crystal Structure of the Human Astrovirus Capsid Protein” (Journal of Virology, 2016)
